Source: patent US6613536B1, “Synthetic peptides and pharmaceutical compositions comprising them for the treatment of systemic lupus erythematosus” (Yeda Research and Development Co. Ltd., priority 1995, dated 2003)

Tests used:
[1] = biological target: T1, MHC class II products on splenic antigen-presenting cells (APC) (Mus musculus, UniProt P06345+P14437); experiment: Inhibition of peptide binding to APC by anti-Ia mAb; set-up: concentration or dose not given beside the values; conditions: SJL, H-2 s
T1 construct: Splenic adherent cells (10^6/100 μl/tube) isolated from BALB/c, SJL, C3H.SW or C57BL/6 mice; from tissue; host or cells: mouse spleen adherent cells (BALB/c, SJL, C3H.SW, C57BL/6)
T1 sequence (P14437 1-233): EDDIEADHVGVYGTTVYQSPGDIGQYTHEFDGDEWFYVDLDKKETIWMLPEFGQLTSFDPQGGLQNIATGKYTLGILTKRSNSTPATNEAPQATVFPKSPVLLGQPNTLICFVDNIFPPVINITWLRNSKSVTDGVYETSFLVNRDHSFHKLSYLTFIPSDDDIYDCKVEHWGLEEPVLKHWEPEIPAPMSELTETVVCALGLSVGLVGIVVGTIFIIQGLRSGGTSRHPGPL
T1 sequence (P06345 28-263): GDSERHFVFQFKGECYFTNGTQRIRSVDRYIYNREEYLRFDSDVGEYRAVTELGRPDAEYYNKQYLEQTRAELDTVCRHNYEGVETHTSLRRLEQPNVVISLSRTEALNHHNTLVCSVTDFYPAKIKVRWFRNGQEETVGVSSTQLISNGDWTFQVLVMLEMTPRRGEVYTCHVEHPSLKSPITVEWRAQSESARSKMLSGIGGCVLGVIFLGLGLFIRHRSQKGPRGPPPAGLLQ
Description: (§1) Spleen cells suspended in RPMI 1640 medium containing 10% FCS were incubated in Petri dishes for 60 min at 37° C. Thereafter, non-adherent cells were removed, the plates were washed, and the adherent cells were collected from the plates using a rubber policeman (Costar, Mass., USA). These cells (1×10^6/100 μl/tube) were incubated with the biotinylated peptides in PBS containing 0.1% BSA (high purity grade, Amresco, Ohio, USA) for 16 hr at 37° C., followed by incubation with phycoerythrin (PE)-streptavidin (Jackson ImmunoResearch) for 30 min at 4° C. Thereafter the samples were incubated with biotinylated anti-streptavidin (1:60, Vector Laboratories, Burlingame, Calif.) and for an additional period with PE-streptavidin, all for 30 min at 4° C. The cells were washed twice with cold PBS/BSA solution after each incubation. Thereafter, cells were analyzed by flow cytometry using the FACSort cytometer and CELLQuest software (Beckton-Dickinson, Mountain View, Calif.). […]
(§2) Binding of the CDR-based peptides Ia and IIIa to APC was determined as described in Materials and Methods herein and the results are shown in Table 2. […] The results are shown in Table 3: Inhibition of binding was specific and ranged from 60% to 100%.

[2] = biological target: T2, MHC class II products on splenic antigen-presenting cells (APC) (Mus musculus, UniProt P14434+P14483); experiment: as above; set-up: concentration or dose not given beside the values
T2 construct: Splenic adherent cells (10^6/100 μl/tube) isolated from BALB/c, SJL, C3H.SW or C57BL/6 mice; from tissue; host or cells: mouse spleen adherent cells (BALB/c, SJL, C3H.SW, C57BL/6)
T2 sequence (P14434 24-256): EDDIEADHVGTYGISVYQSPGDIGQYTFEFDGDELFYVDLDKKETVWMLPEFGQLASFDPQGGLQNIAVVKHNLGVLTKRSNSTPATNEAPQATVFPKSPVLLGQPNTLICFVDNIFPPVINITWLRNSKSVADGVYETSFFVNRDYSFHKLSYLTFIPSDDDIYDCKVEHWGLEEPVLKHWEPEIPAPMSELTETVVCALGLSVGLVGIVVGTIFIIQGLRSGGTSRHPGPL
T2 sequence (P14483 28-265): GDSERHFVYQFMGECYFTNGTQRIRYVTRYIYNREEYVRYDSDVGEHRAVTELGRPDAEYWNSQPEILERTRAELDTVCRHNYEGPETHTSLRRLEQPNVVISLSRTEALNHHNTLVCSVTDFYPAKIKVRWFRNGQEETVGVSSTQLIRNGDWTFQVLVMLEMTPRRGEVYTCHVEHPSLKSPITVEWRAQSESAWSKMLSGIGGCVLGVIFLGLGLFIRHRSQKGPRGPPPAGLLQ
Description: as §1, §2

[3] = biological target: T3, MHC class II products on splenic antigen-presenting cells (APC) (Mus musculus, UniProt P01921+P04228); experiment: as above; set-up: concentration or dose not given beside the values; conditions: BALB/c, H-2 d
T3 construct: Splenic adherent cells (10^6/100 μl/tube) isolated from BALB/c, SJL, C3H.SW or C57BL/6 mice; from tissue; host or cells: mouse spleen adherent cells (BALB/c, SJL, C3H.SW, C57BL/6)
T3 sequence (P04228 24-256): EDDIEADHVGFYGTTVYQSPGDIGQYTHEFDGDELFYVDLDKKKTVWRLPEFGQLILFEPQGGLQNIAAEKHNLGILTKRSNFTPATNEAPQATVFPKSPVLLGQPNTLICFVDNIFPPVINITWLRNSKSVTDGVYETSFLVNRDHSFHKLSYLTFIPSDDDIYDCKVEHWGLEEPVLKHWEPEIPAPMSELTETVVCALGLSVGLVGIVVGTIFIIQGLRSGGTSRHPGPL
T3 sequence (P01921 28-265): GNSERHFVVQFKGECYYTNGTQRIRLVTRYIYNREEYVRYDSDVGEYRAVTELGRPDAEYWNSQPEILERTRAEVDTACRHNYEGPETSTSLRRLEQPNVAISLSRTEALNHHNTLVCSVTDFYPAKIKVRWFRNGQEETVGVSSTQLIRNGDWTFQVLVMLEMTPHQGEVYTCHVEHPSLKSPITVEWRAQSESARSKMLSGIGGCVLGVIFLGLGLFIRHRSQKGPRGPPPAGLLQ
Description: as §1, §2

SJL/J and BALB/c mice = experiment: Anti-nuclear extract (NE) antibodies in sera of immunized mice (ELISA); format: in vivo, mouse
Description: Five groups of mice were immunized according to Example 2, and their sera were tested for the presence of anti-NE antibodies.
ELISA was utilized to test the presence of the anti-NE antibodies in the sera of the mice, as follows: Plates (Nunc) were coated with 5 μg/ml of HeLa cells NE for 90 min. Thereafter plates were washed and blocked, and ELISA was continued the next day, as described in Example 2 for anti-DNA antibodies.

[4] = C3H.SW, H-2 b, mAb anti I-A^b (34-5-3)
[5] = C3H.SW, H-2 b, mAb anti I-A^d (MKD6)
[6] = C57BL/6, H-2 b, mAb anti I-A^b (34-5-3)
[7] = C57BL/6, H-2 b, mAb anti I-A^d (MKD6)
[8] = BALB/c mice immunized as in Example 2
[9] = SJL/J mice immunized as in Example 2

| Substance | % inhibition of binding to APC ([1]; mAb anti I-A^d (MKD6)) | % inhibition of binding to APC ([1]; mAb anti I-A^s (10.3.6.2)) | % inhibition of binding to APC [2, 4] | % inhibition of binding to APC [2, 5] | % inhibition of binding to APC [2, 6] | % inhibition of binding to APC [2, 7] | % inhibition of binding to APC ([3]; mAb anti I-A^b (34-5-3)) | % inhibition of binding to APC ([3]; mAb anti I-A^d (MKD6)) | anti-NE antibodies in sera (SJL/J and BALB/c mice; [8]) | anti-NE antibodies in sera (SJL/J and BALB/c mice; [9]) |
| --- | --- | --- | --- | --- | --- | --- | --- | --- | --- | --- |
| TGYYMQWVKQSPEKSLEWIG [peptide Ia] | 0% | 100% | 60% | 0% | 82% | 0% | 0% | 76.7% | high levels of anti-NE antibodies | lower levels of anti-NE antibodies |
| YYYCARFLWEPYAMDYWGQGS (YYCARFLWEPYAMDYWGQGS) [peptide IIIa, based on the CDR3 region of the VH chain of mAb 5G12] | 0% | 92.8% | 84.4% | 25% | 59.3% | 0% | 0% | 100% | very low level of anti-NE antibodies | high level of anti-NE antibodies |
